The text below walks through data of the DeepSol protein solubility set.

The data set can be described thus: soluble on expression in E. coli; label from the status in PepcDB or PDB records.
On to “SPVVVVTGASRGIGKAIALSLGKAGCKVLVNYARSAKAAEEVSKQIEAYGGQAITFGGDVSKEADVEAMMKTAIDAWGTIDVVVNNAGITRDTLLIRMKKSQWDEVIDLNLTGVFLCTQAATKIMMKKRKGRIINIASVVGLIGNIGQANYAAAKAGVIGFSKTAAREGASRNINVNVVCPGFIASDMTAKLGEDMEKKILGTIPLGRTGQPENVAGLVEFLALSPAASYITGQAFTIDGGIAI”, for which the “soluble on expression in E. coli” value is “soluble”.
In the case of “MSLVLKCSLCINDERITKILTVNGRPICKECKAFLEHPPDKIKIRKELEELLSQVDKAIVAYSGGKDSTVALYLAKEEYDIDVEAVMVDHGFMAPQAIENAKKVSEYLNVPLTIIREDYSEIFKDALLKAKSPCRKCSRRTMEALRKYALEKGYKYIISGHELPFGHHPYRLMSGGIIQIRLLSLMSEKERMEILKKLPFKLPELPGYTSNCLILGPALERYWEKHGYSFEHRRIAALVRYGLLDREKALKKVEKPKVPEWQWELVEKKLNLIVRSLEGHHHHHH” it was “soluble”; in that of “MEEELPLFSGDSGKPVQATLSSLKMLDVGKWPIFSLCSEEELQLIRQACVFGSAGNEVLYTTVNDEIFVLGTNCCGCLGLGDVQSTIEPRRLDSLNGKKIACLSYGSGPHIVLATTEGEVFTWGHNAYSQLGNGTTNHGLVPCHISTNLSNKQVIEVACGSYHSLVLTSDGEVFAWGYNNSGQVGSGSTVNQPIPRRVTGCLQNKVVVTIACGQMCCMAVVDTGEVYVWGYNGNGQLGLGNSGNQPTPCRVAALQGIRVQRVACGYAHTLVLTDEGQVYAWGANSYGQLGTGNKSNQSYPTPVTVEKDRIIEIAACHSTHTSAAKTQGGHVYMWGQCRGQSVILPHLTHFSCTDDVFACFATPAVTWRLLSVEPDDHLTVAESLKREFDNPDTADLKFLVDGKYIYAHKVLLKIRCEHFRSSLEDNEDDIVEMSEFSYPVYRAFLEYLYTDSISLSPEEAVGLLDLATFYRENRLKKLCQQTIKQGICEENAIALLSAAVKYDAQDLEEFCFRFCINHLTVVTQTSGFAEMDHDLLKNFISKASRVGAFKN”, “not soluble”; in that of “MRPQIMPFYIEMGKGDGGITGEDILQNWMLKSNLKNVEILEELPLRPTKLVVAISEEIYPDVYTIEDFKEKVGDREVFIASEFPEIARKYAEKHGLNAIVFDPIGKTEAALLPPMPEADLIIEITEFGTTLKENMCRIIDLVMDKVHSVFIVNKESLKDEEKKQVMENLVTDLKEVIESRNLVSFYFNVPNEDDLRRIIDYLTENGFDPTISPLAKGGAAVHIIVDRSRVKFLKPIIRGMGAKRIATSPVITSGTNRAAQQKPFYLLSGIQREFPSASPFF”, “not soluble”.
In the case of “MASANSVIEGDLFKQKGASTFFNEGDINSSEGTIKHIYGLIIGTSNVSSSGTFATVNLTAGNKTGMTEFSLSNVLISDINSKSVPYTVTNATVLIDTAPVIDPICCPKSVDEKSKLAFKISAKDADGDRLTLSASGLPEGASFNRTSGAFAWTPAVGQTGVYTIAFKVSDGYLTDSENVTVTVNKLNNPPVIDFFEPINGSSFSEGERIGISVNATDAEKQALNYSIKIDGVMYSSDPAYIWETDYSSSGNHTIEVSVSDGIDEAKMQHSIYISECHPRYDVNEDGVVNILDITNVSREYETTVSKPYPRYDTNQDGEINILDLTLVGHHFGEKVELEHHHHHH” it was “not soluble”; in that of “MGQTLSEPVTKKESASCANENYLVGSSCMQGWRVDMEDAHTHLLSLPDDPKCAFFAVYDGHGGSKVSQYSGINLHKKVVAQKEFSEGNMKEAIEKGFLELDQQMRVDEETKDDVSGTTAVVVLIKEGDVYCGNAGDSRAVSSVVGEARPLSFDHKPSHETEARRIIAAGGWVEFNRVNGNLALSRALGDFAFKNCDTKPAEEQIVTAFPDVITDKLTPDHEFIVLACDGIWDVMTNQEVVDFVREKLAEKRDPQSICEELLTRCLAPDCQMGGLGCDNMTVVLVGLLHGQSPDTLFTKCARPAVFTGVNNEDGDQNQIQQDISRVINNFDGEQRVNAANQEEEEDDNEPAPANFQV”, “soluble”.
Next, “SPAAVASALEGCREPVPGIRCRDAFSAASGIIDKMACVPELAVSEISAPRIVSSLAGDGHALFVANSMPARDMDLYAAPVAQKPLQVALNRGVSGIDGIISTAAGFSAGLGKPTTLLIGDISFLHDLNALCLLNHPWNPLIVIVLNNHGGSIFSFLPIASQTDRLDECFATPQNFSIESAARTFGIDYACPETNGDFTQLYAEALTTKKSLIIEIRSDREKNLLLHRSLKARLDPVFEKADC”: “not soluble”; “AEMKTDAATLAQEAGNFERISGDLKTQIDQVESTAGSLQGQWRGAAGTAAQAAVVRFQEAANKQKQELDEISTNIRQAGVQYSRADEEQQQALSSQMGF”: “soluble”; “MSLEKTTRMNYLFDFYQSLLTSKQKSYMSLYYLDDFSLGEIAEEYEVSRQAVYDNIKRTEAMLEQYEEKLLLLKKFQERKEMFNKLKELASGSKEEEEITALIEALEKLD”: “soluble”.
Take “MAFNTPTLSTLIKQGEQQFQYRFPTLKRHNVIGVINRICAALSAGEHMHLDWLARQIIPTTAEEDYLIEYCLYKGIVRKQASTATGLVTVTAANDTTIPAGTVFEDTNTGLTFITTQETVVKAGTADIAVKCETTGVEGNLKAGTSLSLTSAILGLLPTATVKVMSGGADIESLSRLLARLIYRVQYPPAGGASHDYIRWATEVPGVTRAWCFERYYGGGTVGVAFACDEREDILPTPEDIARVRAYIEGHKNEVTGQFEGMPANVELYVFAPQFQAVNFKIRLAPNTPTLRQAVRKSLAAYLANAGVGALLYLSQIRATVSNTAGEVDNSVIFPTADVQLLSDNIAILGDIEWL”: the “soluble on expression in E. coli” value was “not soluble”.
Next, “MAHHHHHHMNFLKRNATNICKGKVLGKHLNTSVQELTNLNKRKFSNIINLGKYGQRYQATHSGSIIGAKRFASGEAQKLSEVVKAEVQHEKSNYEAPDNIKKFLQTSGWKFEEQEGDVNMVLTKNVDGMKIIIDFQLVSPFQAEGENEAQAEMTDFSVTVEKPNKQGGITFYCTTLQNDEKFRYMIGNVKYYKNEEGKNSVSAYNGPEFEDLDDSLQTSLDEWLANLGVDSELCDFIDSCSIDKEQREYMSWLQNISNFIES”: “soluble”; “MSEPFSVPVTVRGYETDTQGHLNQSVYLNYAEHARWSLLQAAGIRQADLVARGVGPVALETTIRFQRELLAGDEVTVTCAFEWGTGKTFRIRQLVTKADGTVAAEIEAVGGLMDLGERRLVPDPRQRFKELAARPELFGLLEHHHHHH”: “not soluble”; “MAHHHHHHMADQNPDLKVEEALKGADIKLLLIDFDGTLFVDKDIKVPSENIDAIKEAIEKGYMVSICTGRSKVGILSAFGEENLKKMNFYGMPGVYINGTIVYDQIGYTLLDETIETDVYAELISYLVEKNLVNQTIFHRGESNYVTEDNKYADFLQKMYSENRSIIIRHNEMLKYRTMNKLMIVLDPSESKTVIGNLKQKFKNKLTIFTTYNGHAEVTKLGHDKYTGINYLLKHYNISNDQVLVVGDAENDIAMLSNFKYSFAVANATDSAKSHAKCVLPVSHREGAVAYLLKKVFDLKK”: “soluble”.
In the case of “MAHHHHHHMPRPPQRIRAQSEGVVGRWYTNYWTLHSVRYQCQLAGVEWQFGERQRPRTNYDEPHMYTDFEETKAIRDYRSRWINVNRSLVGMSRRMKESEEEARYLHFKKVQDTFWSNRKVLVNRIKSMHNQGTLQSAKDLPIKTINIKAFLAE” it was “soluble”.
Next, “MHSLYLGVVKVMAKIILVYANCVNSTAKGDFALAGQIAKDLVREKTSDDIDVVLTSTLDGIARFESLYGKAVDGRVIIEGTSVGLCALELFESVDNEVVAFIEANRCKYAPSDILKRVLSPDSKFLFIGAANQKAIATGDKFTKSWLYISHKGDQPNVYEHFDEDDSLIQSVGLGDDRLGLPSLPKVDELPEMNSTQSQKIPSGEYGFMYLAAVHGIDDVYLMNQYMSLTEMGQYVLVGEYAKQSKEVQMVLHSLQYKGSSVSLTMPQIFFHDSVDNCLMRNMVSKSSGPLVVSTGVMSSIEAMQDGKLTYYQTMSNNTQFVASYLIAVKSICSSDTTLFGSMPKLIIDLSNLLFAEKPLKESQMKEIKSLLGMSSVTSRLGEMNKRIIAKANGTVAGELLSFIGKPKTTQSHKQCISVCMSLRKSGETTSPIFDQALRRAAAWGRLFELKVLIASMSTSDLNKKDKTGNQYTALHWAVMQGHLDCARLLVKSGASVDIQDKSGKSPLHYAIKRGDKETIKLLVQAGASLEIMDDSGAKPCDGSESWVPEYIKSCYEKSGHKSSSLF”: “not soluble”.
As for “MKPTTISLLQKYKQEKKRFATITAYDYSFAKLFADEGLNVMLVGDSLGMTVQGHDSTLPVTVADIAYHTAAVRRGAPNCLLLADLPFMAYATPEQAFENAATVMRAGANMVKIEGGEWLVETVQMLTERAVPVCGHLGLTPQSVNIFGGYKVQGRGDEAGDQLLSDALALEAAGAQLLVLECVPVELAKRITEALAIPVIGIGAGNVTDGQILVMHDAFGITGGHIPKFAKNFLAETGDIRAAVRQYMAEVESGVYPGEEHSFH”, the “soluble on expression in E. coli” value was “soluble”.
In the case of “MQVKLGFTEHSFNLIVSSTSMFKNLLASVGIGAAKVDTRLFNNSVIPGGILEGEVYIRGGDVAQDIQDIYLKLATEYQREVDDSTVTEECVMVNYRLLEHLTIQPKEEVVIPFSLNLPDEMPLTFGHIPVYVRTGLDIKSAINPRDRDYLEVRTHPLMQRVLLAIEHLGFHLHKVDCEYTHYFGGAYPFVQELEFRPTGKYRHSLDELEVVFRLTADQLEVLLEIDKRARGWKGWLEEAFDIDERYARLIVKQSDLYETDVEALIDQIIQSHLS” it was “not soluble”; in that of “MSLSFASSACFNEAGTMFRIEPNLIKAIALVESNLKKDSIGKNRDKKNNIKSFDYGLMQINQMHIPMLKKRGIIKDERDLLDNPCLNIKIGTEILYKHFSRCGMTWQCLGTYNAGFAMDNQKKRLQYAKKIYIVYTRLNELDNRKALAEGHHHHHH”, “soluble”; in that of “MTTPGSSLPPALVDRTALAARRARMRDAALFLHHAALDEVQDRLSLVNRTFTDMAVVTPAPALWAGSFPMARFVAEDEMLDLAPQSCDLVVHAMALHWANDAVGQLIQCRRALRPDGLLLAICFGGQTLHQLRAALAEAEAQVSGGISPRVAPMAEIRDLGALLQRAGLALPVADSLTLTAEYRDLPHLMRDLRQMGEANALSARLRHPTQRAVFERAEEIYAAHFATPDNRLPATFELICLTGWAPDDSQPKPLRPGSASARLAAALGTSETPLPD”, “not soluble”.
On to “MSLTPKKISSISLEVTGSIVSIGLAVYKDIFEYINLVTHKFIYFQDLERKNIELQLEIARLQHLQSEVESVKAENIALKDLLMIAEEEEFEYLTTKLLSVSFNPFSRTALISAGKKQGIEPDQIVVNSGKLVGKIIEVSNNYSKVMLISDVNSRIPIKANSSREQGILAGNNNNSKILYLPNNHLVQKDEEIVTSGHGNIYPAGILVGYVSRVTENDVIVNLAADLSKMEFVQILLPKQEGHHHHHH”, for which the “soluble on expression in E. coli” value was “soluble”.
“MAAAGQEKGYLTQTAAALDKSPSLSPQLAAPIRGRPKKCLVYPHAPKSSRLSRSVLRWLQGLDLSFFPRDINRDFSNGFLIAEIFCIYYPWELELSSFENGTSLKVKLDNWAQLEKFLARKKFKLPKELIHGTIHCKAGVPEILIEEVYTLLTHREIKSIQDDFVNFTDYSYQMRLPLVSRSTVSKSIKDNIRLSELLSNPNMLTNELKAEFLILLHMLQRKLGRKLNPEWFDVKPTVGEVTLNHLPAQASGRRYNLKVKRGRVVPVLPNIGSGGSSHREIHVKQAGQHSYYSAMKPIRNMDKKP”: the “soluble on expression in E. coli” value was “soluble”.
